The record followed here is patent US20150025013A1.

Test [1] concerns the target (pro)renin receptor (PRR), mouse (mouse) (UniProt Q9CYN9). The experiment in a line: cell-based or functional assay.
Test [2] deals with (pro)renin receptor (PRR) on mpkCCD cells (UniProt Q9CYN9). The experiment in a line: cell-based or functional assay.
Sequence of (pro)renin receptor (PRR) on mpkCCD cells (Q9CYN9 18-350 limits assumed): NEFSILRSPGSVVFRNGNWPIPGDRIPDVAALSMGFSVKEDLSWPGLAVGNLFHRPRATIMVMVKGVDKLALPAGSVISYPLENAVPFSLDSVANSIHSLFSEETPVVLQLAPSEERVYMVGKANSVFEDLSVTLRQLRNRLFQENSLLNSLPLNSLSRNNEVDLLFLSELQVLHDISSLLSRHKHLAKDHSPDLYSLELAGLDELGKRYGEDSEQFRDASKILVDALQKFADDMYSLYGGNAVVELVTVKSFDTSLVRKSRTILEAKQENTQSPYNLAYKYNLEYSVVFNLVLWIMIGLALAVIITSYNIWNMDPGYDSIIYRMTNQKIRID

Sequence of (pro)renin receptor (PRR), mouse (mouse) (Q9CYN9 18-350): as the sequence (Q9CYN9 18-350 limits assumed) above

In test [1], “mouse prorenin (from UniProt P06281 22-402) (ligand)” had a pressor response (delta MAP) to ICV mouse prorenin alone in C57BI/6J mice of 31.3 mmHg, a pressor response (delta MAP) to ICV mouse prorenin in neuron-specific PRR knockout (Nefh-PRR) mice of 5 mmHg and a pressor response (delta MAP) to ICV mouse prorenin in wild-type mice of 41 mmHg.
The substance “prorenin (cell culture experiments of Example 13) (ligand)” yielded an ENaC activity (Ieq) in mpkCCD cells, 10 nM for 5 min (control group 1.17+0.05 µA/cm2) in test [2] of 3.16 µA/cm2.
“renin (cell culture experiments of Example 13) (enzyme)” yielded an ENaC activity (Ieq) in mpkCCD cells, 10 nM for 5 min (control group 1.17+0.05 µA/cm2) in test [2] of 1.58 µA/cm2.
